Measurements: the nanobody polyreactivity screen of Harvey et al. (2022)

experiment: yeast display, Sf9 membrane polyspecificity reagent, FACS + sequencing; frameworks hold sequencing errors
Outline: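 Sorting gates, low and high (top ~1%), were placed on anti-HA fluorescence to track expression and on streptavidin fluorescence to track reagent binding. A clone's polyreactivity label is taken from the gate it came out of. The reagent was 10% biotinylated, detergent-solubilized Sf9 membrane, applied for 1 hour at 4 °C to galactose-induced yeast display cells.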

| Sequence | polyreactivity (PSR sort gate) |
| --- | --- |
| QVQLVESGGGLVQAGGSLRLSCAASGRTFPYNARGWYRQAPGKERELVAAISSRGGSTYYADSVKGRFTISRDNAKNTVYLQMNSLKPEDTAVYYCAAQFRFSGMGYWGQGTQVTVSS | high polyreactivity |
| QVQLVESGGGLVQAGGSLRLSCAASGSIFTPNVMGWYRQAPGKERELVAAISQSGGSTFYADSVKGRFTISRDNAKNNVYLQMNSLKPEDTAVYYCAADPFYYFPSPFDYWGQGTQVTVSS | low polyreactivity |
| QVQLVESGGGLVQAGGSLRLSCAASGSTLLVYAMGWYRQAPGKERELVAAITYSGTTTYYADSVKGRFTISRDNAKNTVYLQMNSLKPEDTAVYYCAKYPGYFQGNYWGQGTQVTVSS | low polyreactivity |
| QVQLVESGGGLVQAGGSLRLSCAASGSTFKRNARGWYRQAPGKERELVASISKRGGSTYYADSVKGRFTISRDNAKNTVYLQMNSLIPEDTAVYYCAKTWQNGDRNTIGSVYAYDYWGQGTQVTVSS | high polyreactivity |
| QVQLVESGGGLVQAGGSLRLRCAASGLIFPVYAMGWYRQEPGKEREFVAAITYDGGNTYYADSVKGRFTISRDNAKNTVYLQMNSLKPEDTAVYYCNRRYPGPDSFEHYYYYRYDYWGQGTQVTVSS | low polyreactivity |
| QVQLVESGGGLVQAGRSLRLNCAASGSIFYYYAMGWYRPAPGKERELVAAISRNGGSTSYADSVKGRFTISRDNAKNTVYLQMNSLKPEDTAVYYCNTYGGYKYDYWGQGTQVTVSS | low polyreactivity |
| QVQLVESGGGLVQAGCSLRLSCAASGLIFYYYAMGWYRQAPGKERELVAAITSDDRTYYADSVKGRFTISRDNAKNTVYLQMNSLKPEDTAVYYCAARYHGYLAQYRKYGYGYWGQGTQVTVSS | high polyreactivity |
| QVQLVESGGALVQAGGSLRLSCAASGYIFPGNAMGWYRQAPGKEREVVAGITSSGTSTYYADSVKGRFTISRDNAKNTVYLQMNSLKQEDTAVYYCAADALWGTGSGFDYWGQGTQVTVSS | low polyreactivity |
| QVQLVESGGGLVQAGGSLRLSCAASGSTFYPYAMGRYRQAPGKERELVAAISSGGSTSYADSVKGRFTISRDNAKNTVYLQLNSLKPEDTAVYYCNASSPGAVPVYDYDYWGQGTQVTVSS | low polyreactivity |
| QVQLVESGVGLVQAGGSLRLSCAASGLTFGWYAMGWYRQAPGKERELVASITRRSGSTYYADSVKGRFTISRDNAKNTVYLQMNSLKPEDTAVYYCAARSRGTTRFDFWGQGTQVTVSW | high polyreactivity |
| QVQLVESGGGLVQAGGSLRLSCAASGGTFGSYAMGWYRQAPGKDRELVAAITGSGGRTYYADTVKGRFTISRDNAKNTVYLQMKSLKPEDTAVYYCNATRGIGTPYYYWGQGTQVTVSS | high polyreactivity |
| QVQLVESGGGLVQAGGSLRLSCAASGRTFWTYTLGWYRQAPGKEREFVAAITFGDGSTSYADSVKGRFTISRDNAKNTVYLQMNSLKPEDTAVYYCAAADQVGQEDDYWGQGTQVTVSS | low polyreactivity |
| QVQLVESGGGLVQAGGSLRLSCAASGSTFSVYAMGWYRQAPGKEMELVATITWNGGRTYYADSVKGRFTISRDNAKNTVYLQMNSLKPEDTAVYYCASPWLKPGNGIYGGYGYWGQGTQVTVSS | high polyreactivity |
| QVQLVESGGGLVQAGGSLRLTCAASGSNFVYNAMGWYRQAPGKERELVAAISSRGGSTYYADSVKGRFTISRDNAKNTVYLQMKSLKPEDTAVYYCNAYGPRAYRGGSWGQGTQVTVSS | high polyreactivity |
| QVQLVESGGRLVQAGGSLRLRCAASGSIFGGYTMGRSRQAPGKERELVAAISRRGGNTYYADSVKGRFTISRDNAKNTVYLQMNSLKPEDTAVYYGAVRWPSARIPVKLDYWGQGTQVSVSS | high polyreactivity |
| QVQHVESGGGVVQAGGSLRLSCAASVRTFRYYDMGWYRQAPGTERELVAAITSRGGSSYYADSVKGRFTISRDNAKYTVYLQMNSLKPEDTAVYYCNAYPVQIFYLGNRQYNYWGQGTQVTVSS | high polyreactivity |
| QVQLVESGGGLVQAGGSLRLSCAASGSIFTLYTMGWYRQAPGKERELVAGISWRGGRTYYADSVKGRFTISRDNAKNTVYLQMNSLKPEDTAVYYCAAKWTPHIYTLYSWGQGTQVTVSS | high polyreactivity |
